# Assay results: paper PMC10952841, “Biocatalytic synthesis of 2′‐deoxynucleotide 5′‐triphosphates from bacterial genomic DNA: Proof of principle” (Biotechnology and Bioengineering, 2023)
# Test system: T1, Nc1ncnc2c1ncn2[C@H]1C[C@H](O)[C@@H](COP(=O)(O)O)O1
# T1 construct: C-terminal 6x His tag (pET24a), kept; E. coli BL21(DE3) host; Ni-NTA
# Assay: purified protein
# Format: biochemical, Escherichia coli
# Details: 2 mM ATP, 10 mM Mg acetate, 50 mM K acetate, 20 mM Tris-acetate, 37°C, three protein batches (N = 3)
substance,measurement,value
adenylate kinase (adk) (Escherichia coli K-12),Km,359 ± 84 µM
same,Vmax,47.9 µmol/min/mg
